Results from the RNAGym collection of RNA variant scans (doi:10.7554/elife.80360).

B1: Hairpin Ribozyme (parent)
chain: GUCCUCUUUCACGUGCGCGUGAAAGAGAGAAGUGAACCAGAGAAACACACGUUGUGGUAUAUUACCUGGUA

Variants of: B1
Test: self-cleavage, relative activity (ratio to wild type); higher = more cleavage; co-transcriptional
In the case of U52C U63C, the self-cleavage is reported as 0.226.
Work on U52C U63A yielded a self-cleavage of 0.206.
Work on U55A U63G yielded a self-cleavage of 0.142.
For C50U A61G, the self-cleavage was 0.199.
Work on U55G G57A yielded a self-cleavage of 0.0886.
Variant U53C C65A has a self-cleavage of 1.06.
Work on U53C C65G yielded a self-cleavage of 0.236.
Work on G56U G68C yielded a self-cleavage of 0.157.
In the case of G56U G68A, the self-cleavage is reported as 0.183.
G51A U55A showed a self-cleavage of 0.34.
G51A U55C gave a self-cleavage of 0.405.
With G51A U55G the self-cleavage was 0.407.
Variant U55G G69U has a self-cleavage of 0.25.
With U55A C65U the self-cleavage was 0.21.
U52G G69U showed a self-cleavage of 0.27.
With G51C U55A the self-cleavage was 0.19.
Variant G54C U70C has a self-cleavage of 0.146.
U55G A59U gave a self-cleavage of 0.156.
C50G G57C gave a self-cleavage of 0.181.
In the case of C50G G57A, the self-cleavage is reported as 0.0857.
With U53A U58G the self-cleavage was 0.603.
For G51U U55G, the self-cleavage was 0.222.
Variant G54C U67A has a self-cleavage of 0.167.
Work on U53G G69C yielded a self-cleavage of 0.316.
For C50U U67C, the self-cleavage was 0.157.
Work on G51C G68U yielded a self-cleavage of 0.227.
Work on U53C G54A yielded a self-cleavage of 0.418.
U52G A61G gave a self-cleavage of 0.163.
Variant U52G A61U has a self-cleavage of 0.0725.
Work on G51U G68U yielded a self-cleavage of 0.318.
Work on U55A A61C yielded a self-cleavage of 0.104.
Work on U55C G57A yielded a self-cleavage of 0.11.
Work on U53A U60G yielded a self-cleavage of 0.684.
For G54A U63G, the self-cleavage was 0.172.
For G51U G57A, the self-cleavage was 0.122.
In the case of U55C G68A, the self-cleavage is reported as 0.166.
For G51C A64U, the self-cleavage was 0.0968.
For U53C G69A, the self-cleavage was 0.607.
For U53C G69C, the self-cleavage was 0.43.
With U53A U55G the self-cleavage was 0.389.
Variant U53A U55C has a self-cleavage of 0.256.
In the case of U55C U62C, the self-cleavage is reported as 0.315.
U55C U62A showed a self-cleavage of 0.106.
For G51C G69U, the self-cleavage was 0.224.
In the case of G51C G69A, the self-cleavage is reported as 0.336.
G56C A71G showed a self-cleavage of 0.28.
For G56U C66U, the self-cleavage was 0.0775.
G56U C66G showed a self-cleavage of 0.22.
U53A U70A showed a self-cleavage of 0.987.
U53A U70C gave a self-cleavage of 0.951.
In the case of U53A U70G, the self-cleavage is reported as 0.987.
Variant U53G U55G has a self-cleavage of 0.327.
In the case of U53G A59U, the self-cleavage is reported as 0.119.
Variant G54U G68U has a self-cleavage of 0.302.
Work on U53G U60C yielded a self-cleavage of 1.12.
U53G U60A gave a self-cleavage of 0.44.
With G51U A59U the self-cleavage was 0.0798.
Variant G51U A59G has a self-cleavage of 0.138.
In the case of G54U U67C, the self-cleavage is reported as 0.106.
For G54C U55G, the self-cleavage was 0.25.
U55A A64G showed a self-cleavage of 0.195.
Work on U52A U62A yielded a self-cleavage of 0.24.
Work on G56A A59C yielded a self-cleavage of 0.169.
Work on G51A A59G yielded a self-cleavage of 0.25.
In the case of G51A A59U, the self-cleavage is reported as 0.178.
Work on G54A C65U yielded a self-cleavage of 0.102.
With U55C A61U the self-cleavage was 0.281.
G56U A64G gave a self-cleavage of 0.0832.
U55C U60C showed a self-cleavage of 0.4.
With U52C G54C the self-cleavage was 0.0624.
Variant U52C G54U has a self-cleavage of 0.327.
Work on G56A A61G yielded a self-cleavage of 0.2.
G56A A61C gave a self-cleavage of 0.112.
U52C G69A showed a self-cleavage of 0.416.
G51A U63A showed a self-cleavage of 0.175.
With G51A U63C the self-cleavage was 0.109.
Work on G56U A59C yielded a self-cleavage of 0.135.
G56U A59U showed a self-cleavage of 0.171.
For G51U G54C, the self-cleavage was 0.135.
U52A U63G gave a self-cleavage of 0.121.
For G54U G56U, the self-cleavage was 0.203.
In the case of U53G G57C, the self-cleavage is reported as 0.202.
For G51A A71C, the self-cleavage was 1.49.
Work on G56A C66A yielded a self-cleavage of 0.0948.
For U52A C66A, the self-cleavage was 0.398.
C50U G56C showed a self-cleavage of 0.19.
For U52G G56C, the self-cleavage was 0.0868.
C50U U60G showed a self-cleavage of 0.205.
Work on C50U U60C yielded a self-cleavage of 0.729.
Variant U55A G57U has a self-cleavage of 0.146.
Variant U52A U67A has a self-cleavage of 0.307.
Variant U52A U67C has a self-cleavage of 0.239.
For G51C U58G, the self-cleavage was 0.433.
With G51C U58C the self-cleavage was 0.905.
G54A U55C gave a self-cleavage of 0.502.
Work on G54C A59G yielded a self-cleavage of 0.0783.
G54C A59U showed a self-cleavage of 0.18.
Variant C50G U62A has a self-cleavage of 0.213.
U52G U67C gave a self-cleavage of 0.203.
Work on U52A G69C yielded a self-cleavage of 0.268.
For G51U G69C, the self-cleavage was 0.519.
U55G C65U showed a self-cleavage of 0.0906.
With U55G C65G the self-cleavage was 0.256.
Variant U55G G56U has a self-cleavage of 0.211.
Variant U55G G56C has a self-cleavage of 0.107.
Variant U53A G69U has a self-cleavage of 0.26.
U53A G69C showed a self-cleavage of 0.19.
For G51C A71U, the self-cleavage was 0.722.
U55G A61G showed a self-cleavage of 0.0963.
For U55A U70A, the self-cleavage was 0.181.
Work on C50G G68C yielded a self-cleavage of 0.0881.
G56A G68U gave a self-cleavage of 0.146.
G56A G68C gave a self-cleavage of 0.0908.
G56C U70G gave a self-cleavage of 0.0624.
With G54A A61G the self-cleavage was 0.397.
Work on G54A A61C yielded a self-cleavage of 0.192.
Work on G56C G69U yielded a self-cleavage of 0.313.
For G56C G69C, the self-cleavage was 0.12.
In the case of U55A U67A, the self-cleavage is reported as 0.219.
For U55A U67G, the self-cleavage was 0.27.
In the case of U55C G69C, the self-cleavage is reported as 0.183.
Work on U55C G69U yielded a self-cleavage of 0.159.
U55C G69A showed a self-cleavage of 0.166.
In the case of C50G U63C, the self-cleavage is reported as 0.114.
C50G U63A showed a self-cleavage of 0.177.
C50U U55G gave a self-cleavage of 0.368.
U52G A71U gave a self-cleavage of 0.572.
Work on C50U U58A yielded a self-cleavage of 0.194.
C50U U58C gave a self-cleavage of 0.232.
G54U A59U showed a self-cleavage of 0.178.
For U53G U62G, the self-cleavage was 0.315.
For U55C U63A, the self-cleavage was 0.18.
Work on U55C U63G yielded a self-cleavage of 0.119.
G54A U58C showed a self-cleavage of 0.635.
Variant G54A U58G has a self-cleavage of 0.178.
For U53C U58A, the self-cleavage was 0.709.
In the case of C50G U60G, the self-cleavage is reported as 0.158.
C50G U60A gave a self-cleavage of 0.268.
In the case of U55G A64G, the self-cleavage is reported as 0.266.
U53A A64C showed a self-cleavage of 0.122.
U53A A64G showed a self-cleavage of 0.696.
In the case of G56U U58C, the self-cleavage is reported as 0.0906.
U55G U67G showed a self-cleavage of 0.233.
With U55A U60G the self-cleavage was 0.33.
U55A U60A showed a self-cleavage of 0.245.
With U55C G56A the self-cleavage was 0.0854.
For U55C G56C, the self-cleavage was 0.114.
Work on U53G U70G yielded a self-cleavage of 0.848.
For G51C G56A, the self-cleavage was 0.197.
In the case of G54U U60G, the self-cleavage is reported as 0.29.
For G54U U60A, the self-cleavage was 0.252.
Variant G51U G56C has a self-cleavage of 0.201.
Variant U55C A59C has a self-cleavage of 0.0877.
U55C A59G showed a self-cleavage of 0.0716.
U52G C66A gave a self-cleavage of 0.189.
Variant U55C U67G has a self-cleavage of 0.113.
U55C U67A gave a self-cleavage of 0.177.
G56C A61C showed a self-cleavage of 0.109.
For U55C U58A, the self-cleavage was 0.257.
For U55G U60G, the self-cleavage was 0.185.
With U55G U60A the self-cleavage was 0.0917.
Variant G51U U62G has a self-cleavage of 0.129.
G51U A61G showed a self-cleavage of 0.112.
For G51U A61U, the self-cleavage was 0.25.
U53A C66A gave a self-cleavage of 0.205.
C50U showed a self-cleavage of 0.396.
For U52G U63C, the self-cleavage was 0.0944.
